# Source: PMC11267843, “Transcription factor binding specificities of the oomycete Phytophthora infestans reflect conserved and divergent evolutionary patterns and predict function”
# Experiments:
# PITG_08807 2R-Myb = PITG_08807 2R-Myb (Phytophthora infestans, UniProt D0ND89 1-188); experiment: EMSA; self-competition with unlabeled DNA; conditions: protein: recombinant; tags: 6xHis; GST (N- or C-terminal, per PBM vectors); label: Cy5 (probe); blunt
# PITG_04701 HSF = PITG_04701 HSF (Phytophthora infestans, UniProt D0N1U7 1-190); experiment: EMSA; conditions: protein: recombinant, tags: 6xHis, GST (N- or C-terminal, per PBM vectors), chain copies: 3, blunt
binder,measurement,setting,value
Myb wild-type motif (dsDNA) DNA 1: CTACACTATCATTCTCCGTTACGTCCTACTGTATTGG DNA 2: CCAATACAGTAGGACGTAACGGAGAATGATAGTGTAG,binding result,PITG_08807 2R-Myb,binds
HSF two-site (wild-type motif) (dsDNA) DNA 1: TAAATATAGCACGCTTCTAGAAACTGCAGCACAACA DNA 2: TGTTGTGCTGCAGTTTCTAGAAGCGTGCTATATTTA,binding result,PITG_04701 HSF; label: Cy5 (probe),binds
HSF three-site (dsDNA) DNA 1: TAAATATAGCACGCGAATATTCTAGAAACTGCAGCACAACA DNA 2: TGTTGTGCTGCAGTTTCTAGAATATTCGCGTGCTATATTTA,binding result,PITG_04701 HSF; label: Cy5,binds
